Source: paper doi:10.1101/634816
Like-named read-outs stand apart in the source and are kept apart here.

T1: AtARF5-DBD (Arabidopsis thaliana, UniProt P93024 1-390)
T1 sequence: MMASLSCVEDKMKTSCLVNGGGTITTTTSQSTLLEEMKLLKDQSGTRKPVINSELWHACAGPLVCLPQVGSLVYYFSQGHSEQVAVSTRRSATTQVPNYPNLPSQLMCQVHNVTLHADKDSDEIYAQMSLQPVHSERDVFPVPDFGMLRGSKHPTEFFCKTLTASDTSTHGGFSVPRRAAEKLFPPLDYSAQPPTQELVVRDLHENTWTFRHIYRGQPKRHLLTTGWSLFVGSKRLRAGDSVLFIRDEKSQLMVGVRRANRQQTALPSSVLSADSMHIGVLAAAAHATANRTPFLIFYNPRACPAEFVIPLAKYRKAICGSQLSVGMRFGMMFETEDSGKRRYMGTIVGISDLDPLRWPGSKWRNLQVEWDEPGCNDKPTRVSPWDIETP

B1: ER7-GG (dsDNA)
DNA 1: CCGGTAGGTTGTCGGCCAAAGGCCGACAACCGGTAGG
DNA 2: CCTACCGGTTGTCGGCCTTTGGCCGACAACCTACCGG
B2: ER7 (dsDNA)
DNA 1: CCGGTAGGTTGTCTCCCAAAGGGAGACAACCGGTAGG
DNA 2: CCTACCGGTTGTCTCCCTTTGGGAGACAACCTACCGG

Legend:
AtARF5-DBD [1] = target: T1, AtARF5-DBD; assay: Ni-NTA pull-down with SYBR Gold fluorescence
AtARF5-DBD [2] = target: T1, AtARF5-DBD; assay: Ni-NTA pull-down with SYBR Gold fluorescence; remark: listed apart in the source

Binder	binding result (AtARF5-DBD [1])	binding result (AtARF5-DBD [2])
B1	binds	
B2		binds
